# T1: human MAdCAM expressed on cells (human, UniProt Q13477 19-382)
# T1 construct: whole, on cells; also called MADCAM1
# T1 sequence (looked up): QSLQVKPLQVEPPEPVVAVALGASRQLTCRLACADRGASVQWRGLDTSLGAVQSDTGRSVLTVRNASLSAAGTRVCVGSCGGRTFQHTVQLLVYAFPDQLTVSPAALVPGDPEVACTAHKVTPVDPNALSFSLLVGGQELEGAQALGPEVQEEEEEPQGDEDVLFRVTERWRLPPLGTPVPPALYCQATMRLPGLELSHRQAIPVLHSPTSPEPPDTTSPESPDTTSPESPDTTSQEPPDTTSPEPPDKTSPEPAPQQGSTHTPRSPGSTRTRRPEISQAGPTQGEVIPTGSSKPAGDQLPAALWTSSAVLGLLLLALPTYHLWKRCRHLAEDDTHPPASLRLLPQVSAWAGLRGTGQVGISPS
# T2: mouse MAdCAM expressed on cells (mouse, UniProt Q61826 22-405)
# T2 construct: whole, on cells
# T2 sequence (looked up): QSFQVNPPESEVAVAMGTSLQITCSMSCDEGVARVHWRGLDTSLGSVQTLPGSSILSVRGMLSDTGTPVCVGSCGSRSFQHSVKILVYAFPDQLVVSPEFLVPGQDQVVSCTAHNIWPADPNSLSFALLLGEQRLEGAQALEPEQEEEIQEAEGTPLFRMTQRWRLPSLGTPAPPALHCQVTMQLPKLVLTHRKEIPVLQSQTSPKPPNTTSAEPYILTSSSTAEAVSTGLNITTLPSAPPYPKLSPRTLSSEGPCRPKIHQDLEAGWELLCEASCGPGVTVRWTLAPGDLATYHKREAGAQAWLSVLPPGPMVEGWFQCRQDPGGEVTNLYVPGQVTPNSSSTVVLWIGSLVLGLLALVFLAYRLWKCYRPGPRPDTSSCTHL
# B1: MAdCAM Antibody Table 2 Clone 36 (antibody, human IgG1, V domains shown)
# VH: EVQLLESGGGLVQPGGSLRLSCAASGFTFDDYALHWVRQAPGKGLEWVSAISGDGRSTTYADSVKGRFTISRDNSKNTLYLQMNSLRAEDTAVYYCARDGTVNGATGWFDPWGQGTLVTVSS
# VL: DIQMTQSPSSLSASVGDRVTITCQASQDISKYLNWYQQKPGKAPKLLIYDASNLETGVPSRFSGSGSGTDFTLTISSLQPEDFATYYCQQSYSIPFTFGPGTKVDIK
# B2: MAdCAM Antibody Table 2 Clone 37 (antibody, human IgG1, V domains shown)
# VH: EVQLLESGGGLVQPGGSLRLSCAASGFTFSDYGMPWVRQAPGKGLEWVSAISGSGGSTYYADSVKGRFTISRDNSKNTLYLQMNSLRAEDTAVYYCARDGGWQPAAILDYWGQGTLVTVSS
# VL: DIQMTQSPSSLSASVGDRVTITCRASQGISNNLNWYQQKPGKAPKLLIYDASNLETGVPSRFSGSGSGTDFTLTISSLQPEDFATYYCQQSYSTPLTFGQGTKVEIK
# B3: MAdCAM Antibody Table 2 Clone 59 (antibody, human IgG1, V domains shown)
# VH: EVQLLESGGGLVQPGGSLRLSCAASGFSFSDYGMHWVRQAPGKGLEWVSAISGSGGSTYYADSVKGRFTISRDNSKNTLYLQMNSLRAEDTAVYYCARDGGWQPAAILDYWGQGTLVTVSS
# VL: DIQMTQSPSSLSASVGDRVTITCRASQGISNNLNWYQQKPGKAPKLLIYDASNLETGVPSRFSGSGSGTDFTLTISSLQPEDFATYYCQQSYSTPLTFGGGTKVEIK
# B4: MAdCAM Antibody Table 2 Clone 38 (antibody, human IgG1, V domains shown)
# VH: QVQLVQSGAEVKKPGASVKVSCKASGYTFTDYFLHWVRQAPGQGLEWMGWMNPTSGNTGYAQKFQGRVTMTRDTSTSTVYMELSSLRSEDTAVYYCAREGEGSGFDYWGQGTLVTVSS
# VL: DIQMTQSPSSLSASVGDRVTITCRASQGINSWLAWYQQKPGKAPKLLIYDASNLETGVPSRFSGSGSGTDFTLTISSLQPEDFATYYCQQSYSTPLTFGGGTKVEIK
# B5: MAdCAM Antibody Table 2 Clone 39 (antibody, human IgG1, V domains shown)
# VH: QVQLVQSGAEVKKPGASVKVSCKASGYTFTSYYMHWVRQAPGQGLEWMAWMNPNSGNTGYAQKFQGRVTMTRDTSTSTVYMELSSLRSEDTAVYYCARDYDFWSGSLGYWGQGTLVTVSS
# VL: DIQMTQSPSSLSASVGDRVTITCRASQGISNYLAWYQQKPGKAPKLLIYAASSLQSGVPSRFSGSGSGTDFTLTISSLQPEDFATYYCQQSYSTPWTFGQGTKVEIK
# B6: MAdCAM Antibody Table 2 Clone 40 (antibody, human IgG1, V domains shown)
# VH: QVQLVQSGAEVKKPGASVKVSCKASGYTLTTWYMYWVRQAPGQGLEWMGWINPNRGATNYAQKFQGRVTMTRDTSTSTVYMELSSLRSEDTAVYYCAKGDLWGAMDVWGQGTLVTVSS
# VL: DIQMTQSPSSLSASVGDRVTITCRASDNIGSWLAWYQQKPGKAPKLLIYAASSLQSGVPSRFSGSGSGTDFTLTISSLQPEDFATYYCQQGYSTPPTFGQGTKVEIK
# B7: MAdCAM Antibody Table 2 Clone 41 (antibody, human IgG1, V domains shown)
# VH: QVQLVQSGAEVKKPGASVKVSCKASGYTFTSYYMHWVRQAPGQGLEWMGIINPSGGSTSYAQKFQGRVTMTRDTSTSTVYMELSSLRSEDTAVYYCARDTGYSYGRYYYYGMDVWGQGTLVTVSS
# VL: DIQMTQSPSSLSASVGDRVTITCRASQSIGRWLAWYQQKPGKAPKLLIYDASNLQSGVPSRFSGSGSGTDFTLTISSLQPEDFATYYCQQSYSIPITFGQGTKVEIK
# B8: MAdCAM Antibody Table 2 Clone 42 (antibody, human IgG1, V domains shown)
# VH: QVQLVQSGAEVKKPGASVKVSCKASGYTLTDYYMHWVRQAPGQGLEWMGIINPSGGSTSYAQKFQGRVTMTRDTSTSTVYMELSSLRSEDTAVYYCAREEYSSSSGYFDYWGQGTLVTVSS
# VL: DIQMTQSPSSLSASVGDRVTITCRASQGISSWLAWYQQKPGKAPKLLIYAASSLQSGVPSRFSGSGSGTDFTLTISSLQPEDFATYYCQQSYSTPLTFGQGTKVEIK
# B9: MAdCAM Antibody Table 2 Clone 43 (antibody, human IgG1, V domains shown)
# VH: QVQLVQSGAEVKKPGASVKVSCKASGYTFTSYGISWVRQAPGQGLEWMGWMHPKSGDTGLTQKFQGRVTMTRDTSTSTVYMELSSLRSEDTAVYYCARDTPYYYYGMDVWGQGTTVTVSS
# VL: DIQMTQSPSSLSASVGDRVTITCRASQSISSWLAWYQQKPGKAPKLLIYAASSLQSGVPSRFSGSGSGTDFTLTISSLQPEDFATYYCQQSYSVPITFGQGTKVEIK
# B10: MAdCAM Antibody Table 2 Clone 44 (antibody, human IgG1, V domains shown)
# VH: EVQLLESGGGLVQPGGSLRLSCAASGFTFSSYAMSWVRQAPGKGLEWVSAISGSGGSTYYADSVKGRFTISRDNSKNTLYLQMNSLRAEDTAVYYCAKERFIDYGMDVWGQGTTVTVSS
# VL: DIQMTQSPSSLSASVGDRVTITCQASQDISNYLNWYQQKPGKAPKLLIYAASSLQSGVPSRFSGSGSGTDFTLTISSLQPEDFATYYCQQTYSGWTFGPGTKVDIK
# B11: MAdCAM Antibody Table 2 Clone 45 (antibody, human IgG1, V domains shown)
# VH: EVQLVESGGGLVKPGGSLRLSCAASGFTFGDYAMSWVRQAPGKGLEWVSYISGDIGYTNYAAPVKGRFTISRDDSKNTLYLQMNSLKTEDTAVYYCARDVAATGNWYFDLWGRGTLVTVSS
# VL: not shown
# B12: MAdCAM Antibody Table 2 Clone 52 (antibody, human IgG1, V domains shown)
# VH: EVQLLESGGGLVQPGGSLRLSCAASGFTFDDYGMSWVRQAPGKGLEWVSYISSSSSYIYYADSVKGRFTISRDNSKNTLYLQMNSLRAEDTAVYYCAREIAAAGFYGMDVWGQGTTVTVSS
# VL: not shown
# B13: MAdCAM Antibody Table 2 Clone 53 (antibody, human IgG1, V domains shown)
# VH: QVQLVQSGAEVKKPGASVKVSCKASGYTFTSYYMHWVRQAPGQGLEWMGWMNPNSGNTGYAQKFQGRVTMTRDTSTSTVYMELSSLRSEDTAVYYCAREGLGYCTNGVCWNYYGMDVWGQGTLVTVSS
# VL: DIQMTQSPSSLSASVGDRVTITCRASQGISSWLAWYQQKPGKAPKLLIYGASSLQSGVPSRFSGSGSGTDFTLTISSLQPEDFATYYCQQSYSTPYTFGQGTKVEIK
# B14: MAdCAM Antibody Table 2 Clone 54 (antibody, human IgG1, V domains shown)
# VH: QVQLVQSGAEVKKPGSSVKVSCKASGGTLSRYGVSWVRQAPGQGLEWMGGIIPIFGTTNYAQKFQGRVTITADESTSTAYMELSSLRSEDTAVYYCARDRVYYDSSGYPTWYFDLWGRGTLVTVSS
# VL: EIVMTQSPATLSVSPGERATLSCRASQSVSSSYLAWYQQKPGQAPRLLIYGASTRATGIPARFSGSGSGTEFTLTISSLQSEDFAVYYCQQYGSSPITFGQGTKVEIK
# B15: MAdCAM Antibody Table 2 Clone 55 (antibody, human IgG1, V domains shown)
# VH: EVQLLESGGGLVQPGGSLRLSCAASGFTFDDFAMHWVRQAPGKGLEWVSGISGNGDSRYYADSVKGRFTISRDNSKNTLYLQMNSLRAEDTAVYYCARDASYGGNYGMDVWGQGTTVTVSS
# VL: DIQMTQSPSSLSASVGDRVTITCQASQDIRNYLNWYQQKPGKAPKLLIYKASTLESGVPSRFSGSGSGTDFTLTISSLQPEDFATYYCQQANSFPLTFGPGTKVDIK
# B16: MAdCAM Antibody Table 2 Clone 56 (antibody, human IgG1, V domains shown)
# VH: EVQLVESGGGLVKPGGSLRLSCAASGFTFSSYWMSWVRQAPGKGLEWVSAIGTGGGTYYAAPVKGRFTISRDDSKNTLYLQMNSLKTEDTAVYYCAREWLVPYYGMDVWGQGTTVTVSS
# VL: DIQMTQSPSSLSASVGDRVTITCRASQSISRWLAWYQQKPGKAPKLLIYGASNLQSGVPSRFSGSGSGTDFTLTISSLQPEDFATYYCQQSYSTPWTFGQGTKVEIK
# B17: MAdCAM Antibody Table 2 Clone 57 (antibody, human IgG1, V domains shown)
# VH: EVQLLESGGGLVQPGGSLRLSCAASGFSVSSNYMSWVRQAPGKGLEWVAGISYDGSSKPYADSVKGRFTISRDNSKNTLYLQMNSLRAEDTAVYYCARSRGIAARPLQHWGQGTLVTVSS
# VL: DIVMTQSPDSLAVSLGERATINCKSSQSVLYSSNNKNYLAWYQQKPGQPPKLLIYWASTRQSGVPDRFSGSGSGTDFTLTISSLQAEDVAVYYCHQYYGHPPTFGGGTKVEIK
# B18: MAdCAM Antibody Table 2 Clone 58 (antibody, human IgG1, V domains shown)
# VH: EVQLLESGGGLVQPGGSLRLSCAASGFSVSSNYMSWVRQAPGKGLEWVAGISYDGSSKPYADSVKGRFTISRDNSKNTLYLQMNSLRAEDTAVYYCARSRGIAARPLQHWGQGTLVTVSS
# VL: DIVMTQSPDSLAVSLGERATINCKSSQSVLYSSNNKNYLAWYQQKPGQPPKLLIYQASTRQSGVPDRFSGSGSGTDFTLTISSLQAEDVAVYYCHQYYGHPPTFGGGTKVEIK
# B19: MAdCAM Antibody Table 2 Clone 60 (antibody, human IgG1, V domains shown)
# VH: EVQLLESGGGLVQPGGSLRLSCAASGFTFSDHGMHWVRQAPGKGLEWVSVIYGGESTYYADSVKGRFTISRDNSKNTLYLQMNSLRAEDTAVYYCARDPAVAGGGIFDYWGQGTLVTVSS
# VL: DIQMTQSPSSLSASVGDRVTITCRASQGISNYLAWYQQKPGKAPKLLIYDASNLETGVPSRFSGSGSGTDFTLTISSLQPEDFATYYCQQSYSTCYTFGQGTKLEIK
# Assays:
# [1] = target: T1, human MAdCAM expressed on cells; assay: cell binding
# [2] = target: T2, mouse MAdCAM expressed on cells; assay: cell binding
Binder,binding result [1],binding result [2]
B1,binds,binds
B2,binds,no binding
B3,binds,no binding
B4,binds,no binding
B5,binds,no binding
B6,binds,no binding
B7,binds,no binding
B8,binds,no binding
B9,binds,no binding
B10,binds,no binding
B11,binds,no binding
B12,binds,no binding
B13,binds,no binding
B14,binds,no binding
B15,binds,no binding
B16,binds,no binding
B17,binds,no binding
B18,binds,no binding
B19,binds,binds

# From patent US20210206856A1 (PANDION OPERATIONS, published 2021)
